# Measurements published in patent US11287428B2, “PD1 and PDL-1 expression during progression from myelodysplastic syndrome to acute myelogenous leukemia” (H. Lee Moffitt Cancer Center and Research Institute, Inc., priority 2016, dated 2022).
# Legend:
# Format in all cases: cell-based, human
# [1] = system: CD33+CD14+ cells; assay: Culture of BM cells with S100A9, PD-L1 surface expression by flow cytometry; settings: BM cells cultured with S100A9, 48 h
# Experimental: FIG. 5. Culture of BM cells with rhS100A9 can induce the expression of PDL1 on CD33+CD14+.
# (§1) FIGS. 20A-20C. […] One and half million of BM cells from Healthy donor were placed per well in 24-well plate, cultured with IgG or S100A9. After 48 h, cells were collected and stained with antibodies: anti-CD33-PE-Cy7, anti-CD34-Percp-Cy5.5, anti-CD14-BV510, anti-CD71-BV421, anti-CD38-BV711, anti-CD235a-BUV395, anti-PD-1-FITC and anti-PD-L1-APC. Near infrared live/dead dye was used for distinction of live or dead cells. Flow acquisitions were performed using LSR II cytometer and analysis was done using live cells with flowjo. (A) PD-L1 expression on CD14+/CD33+: cells positive for PD-L1 surface expression were calculated based on FMO gate setting. (B) and (C) PD-1 expression on progenitors by S100A9 or PT plasma, respectively. Positive PD-1 surface expression on CD14−/CD33−/CD71−/CD34+/CD38+ progenitors was determined using FMO gates. HD—healthy donor (n=6), MDS—myelodysplastic syndrome (n=10). Significance was determined using two-tailed unpaired t test with Welch's correction: *P<0.05, **P<0.01, ***P<0.001, error bars indicate mean±SEM.
# [2] = system: CD33+, CD34+, and CD71+ cells; assay: Culture of BM cells with S100A9, PD-1 surface expression by flow cytometry; settings: for PD-1 expression on CD34+ cells / PD-1 expression on CD71+ cells: BM cells cultured with S100A9, 48 h
# Experimental: FIGS. 6A and 6B. Culture of BM cells with rhS100A9 can induce the expression of PD1 on CD33+.
# FIG. 7. Culture of BM cells with rhS100A9 can induce the expression of PD1 on CD34+.
# FIG. 8. Culture of BM cells with rhS100A9 can induce the expression of PD1 on CD71+.
# as §1
# [3] = system: CD71 cells; assay: Active caspase 3 staining of BM cells cultured with S100A9; settings: BM cells cultured with S100A9, 48 h
# Experimental: FIG. 21. Increased the expression of PD-1 and PD-L1 induced cell death. One and half million of BM cells from Healthy donor were placed per well in 24-well plate, cultured with IgG or S100A9. After 48 h, cells were collected and stained for cell surface with antibodies: anti-CD33-PE-Cy7, anti-CD34-Percp-Cy5.5, anti-CD14-BV510, anti-CD71-BV421, anti-CD38-BV711, and anti-CD235a-BUV395, then cells were fixed/permeabilized and stained with anti-active caspase 3-PE according to manufacturer's protocol (BD Biosciences). Near infrared live/dead dye was used for distinction of live or dead cells. Flow acquisitions were performed using LSR II cytometer and analysis was done using live cells with flowjo. (A) PD-L1 expression on CD14+/CD33+: cells positive for PD-L1 surface expression were calculated based on FMO gate setting. (B) and (C). PD-1 expression on progenitors by S100A9 or PT plasma, respectively: Positive PD-1 surface expression on CD14−/CD33−/CD71−/CD34+/CD38+ progenitors was determined using FMO gates. HD—healthy donor (n=6), MDS—myelodysplastic syndrome (n=10). Significance was determined using two-tailed unpaired t test with Welch's correction: *P<0.05, **P<0.01, ***P<0.001, error bars indicate mean±SEM.
# [4] = system: C-Myc; assay: C-Myc and p-stat3 induction in HD BM cells cultured with S100A9; settings: HD BM cultured with S100A9 for 48 h
# Experimental: FIG. 23. […] Right panel, HD BM cells 48 h treatment.
# [5] = listed as recombinant human S100A9
molecule,measurement,setting,value
"S100A9: recombinant human S100A9 protein used to treat BM cells (protein, UniProt P06702 1-114, looked up) Protein S100-A9: MTCKMSQLERNIETIINTFHQYSVKLGHPDTLNQGEFKELVRKDLQNFLKKENKNEKVIEHIMEDLDTNADKQLSFEEFIMLMARLTWASHEKMHEGDEGPGHHHKPGLGEGTP",PD-L1 expression on CD33+CD14+ cells,[1],directly induced the expression of PD-L1
same,PD-L1 expression on CD33+CD14+ cells,[1]; [5],induces PDL1 expression
same,PD-1 expression on CD34+ cells,[2],directly induced
same,PD-1 expression on CD71+ cells,[2],directly induced
same,PD-1 expression on CD34+ cells,[2]; [5],induces PD1
same,PD-1 expression on CD71+ cells,[2]; [5],induces PD1
same,PD-1 expression on CD33+ cells,[2]; BM cells cultured with rhS100A9,induces PD1
same,active caspase 3 in CD71 cells,[3],increase active caspase 3
same,C-Myc expression,[4],induced C-Myc expression
same,p-stat3,[4],induced p-stat3
